B1: H4H2352S (antibody, human IgG4, V domains shown)
VH: EVQLVQSGAEVKKPGASVKVSCKASGYTFTNYGITWVRQAPGQGLEWMGWISAYNGNTGYAQKFQGRVTMTTDTSTSTAYMELRSLRSDDTAVYYCAREDYDFWRAFDIWGQGTMVTVSS
VL: EIVLTQSPGTLSLSPGERATLSCRASQSVSSTYLAWLQQKPGQAPRLLIYGASSRATGIPDRFSGSGSGTDFTLTINRLEPEDFAVYYCQQYAYSPYTFGQGTKLEIK
notes: human IgG4 Fc (H4H); also called H4H2352S-1
B2: H4H2292S (antibody, human IgG4, V domains shown)
VH: EVQLVESGGGVVQPGRSLRLSCAASGFTFSSYGMHWVRQAPGKGLEWVSFIWYDGSNKYYADSVKGRFTISRDNSKNTLYLQMNSLTAEDTAVYYCARRGILTGTTAFDIWGQGTMVTVSS
VL: DIQMTQSPSSLSASVGDRVTITCRASQSISSYLNWYQQKPGKAPKLLIYAASSLQSGVPSRFSGSGSGTDFTLTIRSLIPEDFATYYCQQTYNTPFTFGPGTKVEIK
notes: human IgG4 Fc (H4H)
B3: H4H2355S (antibody, human IgG4, V domains shown)
VH: EVQLVESGGGLVQPGGSLRLSCAASGFTFSSYAMSWVRQVPGKGLEWVSAISGSGDNTYNAESVKGRFTISRDNSKNMLYLQMNSLRAEDTAVYYCAKTKFSSSLLFDYWGQGTLVTVSS
VL: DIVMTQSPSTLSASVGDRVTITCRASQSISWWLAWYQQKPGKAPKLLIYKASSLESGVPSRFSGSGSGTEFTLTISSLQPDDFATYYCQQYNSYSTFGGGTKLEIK
notes: human IgG4 Fc (H4H)
B4: H4H2357S (antibody, human IgG4, V domains shown)
VH: EVQLVESGGGLVQPGGSLRLSCAASTFTFSSYAMTWVRQAPGKGLEWVSSISGSGDSTYYADSVKGRFTISRDNSKNTLFLQMNSLRAEDTAVYYCAKKDGPGRYYVRYGMDVWGQGTTVTVSS
VL: DIQMTQSPSSVSASVGDRVTITCRASQGISSWLAWYQQKPGKAPKLLIYTTSSLQSGVPSRFSGSGSGTDFTLTISSLQPEDFATYYCQQANSFPLTFGGGTKVDIK
notes: human IgG4 Fc (H4H)
B5: H4H2350P (antibody, human IgG4, V domains shown)
VH: QVQLQESGPGLVKPSETLSLTCTVSGGSISTYYWSWFRQPPGKGLEWIGYIYYSGSTNHNPSLKSRVTISVDTSKNQFSLKLRSVTAADTAVYYCARVGPVGWGSWGNFDYWGQGTLVTVSS
VL: DIQLTQSPSFLSASVGDRVTITCWASQGISSYLAWSQQKPGKAPKLLIYAASTLQSGVPSRFSGSGSGTEFTLTISSLQPEDFATYYCQQLNSYPWTFGQGTKVEIK
notes: human IgG4 Fc (H4H)
B6: H4H2243N2 (antibody, human IgG4, V domains shown)
VH: QVQLVQSGAEVKKPGASVKVSCKASGYTFTSYGIIWVRQAPGQGLEWMGWISGYNGNTNYAQNLQGRVTMTTDTSTTTAYMELRSLRSDDTAVYYCARWGIATRPYYYYGMDVWGQGTTVTVSS
VL: DIQMTQSPSSLSASVGDRVTITCRASQDITNYLAWFQQKPGKAPKSLIYAASSLQSGVPSKFSGSGSGTDFTLTISSLQPEDFATYYCQQYNSYPPTFGPGTKVDIK
notes: human IgG4 Fc (H4H)

Here are results for six molecules from patent publication US20140056903A1 (Regeneron, published 2014).

For the first assay, the target named is T1, human GFRα3 expressed with a C-terminal myc-myc-hexahistidine tag (human, UniProt O60609 32-374, biotinylated (sites not given) in ELISA format 2 and in the Octet cross-competition; not in SPR).
T1 construct: also called hGFRα3-mmh; hGFRα3-mmH
The assay is described as follows: SPR, Ab captured, 37C. In a few lines:
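Anti-GFRα3 antibodies were captured on anti-mouse or anti-human IgG surfaces on a CM5 chip in HBS-EP or PBS with 0.05% P20. Myc-myc-His-tagged antigens were injected at 200 to 7.4 nM, hFc-tagged at 100 to 3.7 nM (3-fold dilutions). Rates were fitted to a 1:1 model; KD = kd/kₐ.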
On to B1, for which the Kd is 0.118 nM, the dissociation rate constant (koff) came to 0.000139 s⁻¹, the kon worked out at 1.18e+06 M⁻¹ s⁻¹ and the t1/2 is 83 min.

In turn, B2 yielded a Kd of 1.94 nM, a koff of 0.000249 s⁻¹, a kon of 128000 M⁻¹ s⁻¹ and a t1/2 of 46 min.

As to B3, the Kd is 4.37 nM, the koff came out at 0.00123 s⁻¹, the on-rate constant (kon) turned out to be 281000 M⁻¹ s⁻¹ and the t1/2 stood at 9 min.

On to B4, for which binding was put at a Kd of 7.12 nM, the koff was determined as 0.0021 s⁻¹, the kon turned out to be 295000 M⁻¹ s⁻¹ and the t1/2 was determined as 6 min.

Molecule B5 showed a Kd of 9.61 nM, a koff of 0.00128 s⁻¹, an association rate constant (kon) of 134000 M⁻¹ s⁻¹ and a t1/2 of 9 min.

Regarding B6, binding was characterised by a dissociation constant (Kd) of 5.2 nM, the koff came out at 0.00244 s⁻¹, the kon was 469000 M⁻¹ s⁻¹ and the t1/2 amounted to 5 min.

A further assay addresses T1, human GFRα3 expressed with a C-terminal …. The assay is described as follows: Octet cross-competition; biotin-hGFRα3-mmH pre-saturated with first antibody H4H2296S. How it is done: (§1) A cross-competition assay was conducted to assess the ability of select antibodies to compete with one another for binding to human GFRα3 using an Octet RED384 biosensor (Fortebio Inc.). The entire experiment was performed at 25° C. with the flow rate of 1000 rpm in Octet HBST buffer (0.01 M HEPES pH7.4, 0.15M NaCl, 3 mM EDTA, 0.05% v/v Surfactant P20, 0.1 mg/mL BSA). To assess whether 2 antibodies were able to compete with one another for binding to their respective epitopes on biotinylated recombinant human GFRα3 expressed with a C-terminal myc-myc-hexahistidine tag (biotin-hGFRα3-mmH; SEQ ID:370), around ˜1.2 nm of biotin-hGFRα3-mmH was first captured onto streptavidin-coated Octet sensor tips (Fortebio Inc, #18-5019) by submerging the tips for 1 minute into a 10 μg/mL solution of biotin-hGFRα3-mmH. The antigen coated sensor tips were then placed into wells containing 25 μg/mL solution of a first anti-GFRα3 monoclonal antibody for 4 minutes to saturate the biotin-hGFRα3-mmH surface. The sensor tips were then subsequently dipped into wells containing 25 μ/mL solution of a second anti-GFRα3 monoclonal antibody. The sensor tips were washed in Octet HBST buffer in between every step of the experiment. The real-time binding response was monitored during the course of the experiment and the binding response at the end of every step was recorded as shown in FIG. 9. The response of mAb-2 binding to biotin-hGFRα3-mmH pre-complexed with the first antibody was compared and competitive/non-competitive behavior of different anti-GFRα3 monoclonal antibodies was determined.
Consider B1, for which the “binding response of second antibody (nm)” value came out at 2.01 nm.

Take B2: the “binding response of second antibody (nm)” value amounted to 1.87 nm.

Regarding B3, the “binding response of second antibody (nm)” value was 0.02 nm.

Regarding B4, the “binding response of second antibody (nm)” value turned out to be 0.06 nm.

As for B5, the “binding response of second antibody (nm)” value worked out at 1.27 nm.

Turning to B6, the “binding response of second antibody (nm)” value worked out at 0.06 nm.

A further assay has the same target. Nature of the assay: Octet cross-competition; biotin-hGFRα3-mmH pre-saturated with first antibody H4H2292S. On the procedure:
as §1
B1: the “binding response of second antibody (nm)” value is 0.34 nm.

Turning to B2, the “binding response of second antibody (nm)” value amounted to 0.11 nm.

As to B3, the “binding response of second antibody (nm)” value worked out at 2.07 nm.

For the molecule B4, the “binding response of second antibody (nm)” value amounted to 2.43 nm.

For B5, the “binding response of second antibody (nm)” value amounted to 1.53 nm.

With B6, the “binding response of second antibody (nm)” value worked out at 1.91 nm.

Another assay shares this target. Nature of the assay: Octet cross-competition; biotin-hGFRα3-mmH pre-saturated with first antibody H4H2243N2. How it is done:
as §1
With B1, the “binding response of second antibody (nm)” value was found to be 0.46 nm.

With B2, the “binding response of second antibody (nm)” value is 1.7 nm.

As for B3, the “binding response of second antibody (nm)” value came to 0.24 nm.

In the case of B4, the “binding response of second antibody (nm)” value turned out to be 0.32 nm.

Regarding B5, the “binding response of second antibody (nm)” value is 1.2 nm.

As for B6, the “binding response of second antibody (nm)” value stood at 0.06 nm.
